# From the DeepSol protein solubility set
# Test: soluble on expression in E. coli; label from the status in PepcDB or PDB records
row,Sequence,soluble on expression in E. coli
1,MRPPLIERYRNLLPVSEKTPVISLLEGSTPLIPLKGPEEARKKGIRLYAKYEGLNPTGSFKDRGMTLAVSKAVEGGAQAVACASTGNTAASAAAYAARAGILAIVVLPAGYVALGKVAQSLVHGARIVQVEGNFDDALRLTQKLTEAFPVALVNSVNPHRLEGQKTLAFEVVDELGDAPHYHALPVGNAGNITAHWMGYKAYHALGKAKRLPRMLGFQAAGAAPLVLGRPVERPETLATAIRIGNPASWQGAVRAKEESGGVIEAVTDEEILFAYRYLAREEGIFCEPASAAAMAGVFKLLREGRLEPESTVVLTLTGHGLKDPATAERVAELPPPVPARLEAVAAAAGLL,soluble
2,MRQKGHRHGRTVSPCAGCKLLRRKCVKDSCVFAPYFPAKEPYKFAIVHKIFGASNVNKMLQELSENHRSDAVDSMVYEANARIQDPVYGCVGTISSLHRQLETLQTQLAFAQAELIHIRTLHRIHTKPPPYTASTVTFPSNKDFYSDIDMAVAYTDDAGDFLWSC,soluble
3,MRQRYLALLSLFASLPAMAISFQTRLESIEWKVEGDQFECRLTQPITDFGAGEFVRRAGEQATFRLKASYNMLGNGSATLLAAAAPWQPGRGDINLGSVRVSNGDIPFNTSQAQAGRLISGLMDGRSPLIRHYNRDGGQMEVRLLPVKFSKAFSDYQACTAKLLPMNFDQVKQAEVGFPGGGIELDANAKARLDNMVAYLKADPTVNRIELDGHSDNSGNRLTNRDLSRRRALAVMDYFKAQGIPEQQITLRFHGERYPLAPNTNNANRARNRRVNVHLERVAPDERPVPVASSASAAHTS,not soluble
4,MRRFLTLTVALGFLSACEVSDPGPVAPLPKVPDSPPMSASAAQSAFASVSARVRPVAVRECQQRTQGANCDFKIQIDPDPKAPVNAYQTVGKNGQPLIIFTRSMIATARNADELAFVMGHEAAHHIRGHLARQNASAIAGAVILGGLVGLAGGGASTIDAATQIGASVGARTYSKEYELEADELGTVITHKAGYNPLVGAHFFSRIPDPGDRFLGSHPPNAARIQTVQRTAGSLGLTQLEHHHHHH,not soluble
5,MRRKIMMATLIVIAVNFIWSGQPVKACTRAVYIGPDNMVITGRTMDWKEDIQSNLYLFPRGIKRAGYNKGNTVEWISKYGSIVATGYDIGTCDGMNEKGLVASLLFLPESIYVRPNDTRPVMGISIWTQYVLDNFATVSEAVEELKKQTFRIDAPDMPNGSASTLHMAITDETGNSAVLEYIDGNLIIHEGKEYQVMTNSPRYDLQLAVNDYWKEVGGLNMLPGTNRSSDRFVRASFYIHAIPQTSDAKIAVPSVLSVMRNVSVPFGITTLDKPYISSTRWRSVSDQKNRVYYFESTLTPNLFWIDLHKVDFSPNASIKKLSLTHGEVYAGDVVKDFKDSRSFTFMFELPK,not soluble
6,MRRKMERIALIEDDKDLAFLVKLNLEREGFEVEHFERATPFFKFISENSVDLILIDIMLPDLDGFRIANFLKSRADLKEIPVIFITAKGEEEDKLKGFELGADDYITKPFSMKELIARVRAVLKRYKKVSESKVLKYEGVELDTERQKLFVDGREVYLTPAEFKILKTLMENFGRPVSRSSLVEKLWDYERETTERAIDVHVKHIRDKLGKYKGLIKTVRGVGYKFEN,soluble
7,MRRKSVLYLEVADQIKEDILSGKYPVGTFLPTETELEELFNVSKITIRRAIEMLATEEFVEKKSGRGTTVLSNRPYNKLSKAGTFTEFLNESGQKVTKKVLQVENLTLSKEMPAYQFLGEEVVHLSRLYLIDEQPYIYFNYYLPAAMKDVSLTEYKEESLYRLMDRHAIEIYKFEDRFEVATLTEAEQKMLQTTETTGLKRIRRSLSPTGRCVEYSEAIYNTKIHPYVIEYEA,not soluble
8,MRRLLTLWVLGLGALAQVPVGQVATRDVHALLWLPDGRLLFGHHDGLQVSEDEGRTWRDLVRKTGFDAMEHSFWRGDRLLAAEHWVLSESRDGGKTWRSFRPRGLPALDLHGYAASGGLHFALEATHGYFVSEDGGKTFKSTAPKGLPKAGMAAMVFQGKTLYVAPMGQGLYQSSDGGRTFTQVPTPEREIYALATGAGTLYLGGKTGLWQRTPAGWKRLWQGAVLALAAHPQEAGRLVFIDGQERVWKLP,soluble
9,MRRRRRRDGFYLAPDFRHREAEDMAGVFDIDLDQPEDAGSEDELEEGGQLNESMDHGGVGPYELGMEHCEKFEISETSVNRGPEKIRPECFELLRVLGKGGYGKVFQVRKVTGANTGKIFAMKVLKKAMIVRNAKDTAHTKAERNILEEVKHPFIVDLIYAFQTGGKPYLILEYLSG,soluble
10,MRRSKMTYLIGVDCGGTHIVGQTWTTAPEHLVQSVTGGPGNVVLDYSAAVTNLTTVLDQLTAAIPASQLGLILIGIAGIETAGRADQVQQTITQRYHANTQVISDAKLALLNGLAGADGALVIAGTGSVVYGRQAGKFLRVGGWGYVLGDEGSAYDISKRALKQVLTQTDNGQTSQLTAPLLAQLKVTDIAAAVQKFYAQDRQTNAQLAQLIAKLAEQQNSEAITVLVTSAQALAQQVVTLYQRFAESWPQRVALSGSVLQHNRLVRDTLTTTVHQSIPTIAFNDITTNNAHAVIYWHRWTQEEINSLEHHHHHH,not soluble
11,MRRVDQPRPPGTPFGLREQTTSNADAPARTAPPAHPAPERPTGMLGGLTRYVPGDRSGRPPAMPAAAETSRRPTTSARPLPYGGSGSAARMNEAAGHPLRMPQLPQLSDIERARFHSVTTDSQHLRPVRPRMPPPVGASPLRRSTALRPYHDVLSQWQRHYNADRNRWHSAWRQANSNNPQIETRTGRALKATADLLEDATQPGRVALELRSVPLPQFPDQAFRLSHLQHMTIDAAGLMELPDTMQQFAGLETLTLARNPLRALPASIASLNRLRELSIRACPELTELPEPLASTDASGEHQGLVNLQSLRLEWTGIRSLPASIANLQNLKSLKIRNSPLSALGPAIHHLPKLEELDLRGCTALRNYPPIFGGRAPLKRLILKDCSNLLTLPLDIHRLTQLEKLDLRGCVNLSRLPSLIAQLPANCIILVPPHLQAQLDQHRPVARPAEPGRTGPTTPALSPSAAGDRAGPSSSATASELLLTAALERIEDTAQAMLSTVIDEERNPFLEGAPSYLPGKRPTDVTTFGQVPALRDMLAESRDLEFLQRVSDMAGPSPRIEDPSEEGLARHYTNVSNWKAQKSAHLGIVDHLGQFVYHEGSPLDVATLAKAVQMWKTRELIVHAHPQDRARFPELAVHIPEQVSDDSDSEQQTSPEPSGHQ,soluble
12,MRRVMIPKPGGGERPLGIPTIRDRVVQAAAKIVLEPIFEADFEDGAYGYRPRRNAVDAVKEVHRLMCRGYTDVVDADLSKYFDTIPHSDLLKSVARRIVDRNVLRLIKLWLRVPVEERDSNGKRRMSGGKSNKCGTPQGGVMVPLEHHHHHH,not soluble
13,MRSEAKNQKPTAYPMKGIDDLPLHEIIEPALDITSPQVACVGIGVRAVCNYDCVYCYAGHSDKRGDMSVEQYFDVMEQAAELGVKTIIMTGAGGKSEPGLFKGLLPILERASSLGMSTAMFTNGSQFGDDKVARIHNLSAVELAHKIRELKVSLFIACETLEPDLYSNITKKPIAPFQTGLINLIAAGFIGTPGEPTSVTISSVIMRQNFEELPVLQKFAHNNGWQYICKFPTLVGSALDHPELFFSPEEAAERHSIVAELRDKPETLTVTHSGAEYCLVNQVGMSFDNLGTPLNCLSGCEITSRKDMNLKSMRLADIVLLKKHLAHQGIGNCPKKAVFYDFKQPKLEAAAFHGLS,not soluble
14,MRSFDFAPLHRASIGFDQIADLMDRVMSSDVGQPSYPPYNIEKTAADAYRISIAVAGFAETDLSVEVKENALVISARKAADEAERTFLHRGIATRAFERRFTLADHVRVTGASHENGMLHIDLKREIPEALKPRRIEIASVKSADTPERIEAKAVN,not soluble
15,MRSFPKAKEAFSEGEKVSFGVHRLHVGDAREVLASFPEASVHLVVTSPPYWTLKRYEDTPGQLGHIEDYEAFLDELDRVWREVFRLLVPGGRLVIVVGDVAVARRRFGRHLVFPLHADIQVRCRKLGFDNLNPIIWHKHTNASLEVEGRGVFLGKPYEPGAIIKTEIEYILMQRKPGGYRKPTQEQREKSRLPKEDFHRFFRQIWDDIPGESTKDHPAPFPLELAERLVRMFSFVGDVVLDPFAGTGTTLIAAARWGRRALGVELVPRYAQLAKERFAREVPGFSLEVLDGATHPRR,soluble
16,MRSLIGMTFLNSSVGQRRLRQNGIVLRLGPVVADRRRATLPHRQGHCLDRQDLETLLLWLQRHFLCVPLEHLLEGPAPACLRIALSVDGNPAELAEQVYPLLERYEMPASAFIGGDPRSWREAVAETLWQADATAAGPLLELLEGYSGAALMAVFERTGDDQRRSRNLDLLLRKLERLDPASQQALHAACPVPAPYSAGDWERVRRLENSGLLRFGLRGQEPHPSAGLCAEDCLGRAHRQLQQHCAAPLPVFCQARTTPAAQPGLRAALGRLGYRFAFGARNGLVDTRCDPLDLPRIEVDAAIAARPGRLAWHIYRGARP,not soluble
17,MRSLISSLDLTREEVEEILKYAKEFKEGKEETIKASAVLFFSEPSTRTRLSFEKAARELGIETYLVSGSESSTVKGESFFDTLKTFEGLGFDYVVFRVPFVFFPYKEIVKSLNLRLVNAGDGTHQHPSQGLIDFFTIKEHFGEVKDLRVLYVGDIKHSRVFRSGAPLLNMFGAKIGVCGPKTLIPRDVEVFKVDVFDDVDKGIDWADVVIWLRLQKERQKENYIPSESSYFKQFGLTKERFEKVKLYMHPGPVNRNVDIDHELVYTEKSLIQEQVKNGIPVRKAIYKFLWT,soluble
18,MRSLPIFPDLRAFLDWCARKGDLSRIAEPVSLRHETTAVASKILRGGGPVLRFESLRDTSATMPLVANLFGTRERVAAGLGLGLEQIPELGAFLAALRAPAPVAGMRDALSRWPQLQAALNTRAKIVRSAEAQEVVHEGAAVDLGMIPVPTCWPGDAGPLVTWPVVLTRPHGTSAEETLHYNAGVYRAQVIGRDRLIMRWLAHRGGAGHCRSWMRAGEPMPVALALGCDPALLLAAALPLPEQVSELTFSGVLRGARTPLVAGRTVPLMVPATAEIVVEGWVHPGDMAPEGPFGDHTGYYNSVEDFPVLRVSAITHRKDPLYLTTHTGRPPDEPSVIGEVFNDLAMPVFRQQIPEVKDLYLPPAACSYRIAIVSIDKRYPGQARRVMMALWGMLAQFSYTKMVIVVDEDINPRDWDDVAWAMATRMDPSRDVVLLEKTPMDYLDFASPEPGLAGKIGIDATNKIGPETHREWGEVMTQSPEAEAFADRLIAKLRIGALEHHHHHH,not soluble
19,MRTILIDWFSDAVREYISRKEAVHLAASLVDRALPMFNIDKMRFQLVGITSMRIAVKYEEIFPPILSNTRHSFDGAILYWKVRLHRRNAHTILDRIMLCTENELGVCRQLLTQGFATSYPSLA,not soluble
20,MRTRNMQDFEGPLPDLLESALTWVKQNAPTQNVYDSSGHMRKESVYPLPAVRELIANALVHRDLSPNSDGKWVEIRLCDDRLVISNPGGLRGVSVKQLESATLSKNAVNPRLYDIAKRVRTEGAGIQEVLRQTCQALLAKPQLIDTGVQFTAILYGASVFSEAELEWLRSIGGDGLTAVEKHLLVGLRKGESWHLSRILNEFSPITVAEAEKLMHGLKKRGFIESDNKTFTLGAHSENQAPRVEKEETTLAKITKNAPTIAHALELKPEQSFEELLRTTGLSQGQLRFALDKLQAVGLVVREGGWGVHGTTYHWSAQT,not soluble
21,MRVAVLGAGAWGTALAVLLASKGVPTRLWARRKAQAEALKAMRENRDYLPGVALPAYLYPTHDPEEALEGAELAVLAVPSKALRETVAGLPPAPWYVSATKGLFYGEEGVRTPAEVVEALTQRPVVALSGPNHAEEVARFLPTASVAAGPEDLARRVQALFSGPTFRVYTSRDRRGVELGGAVKNVLALAAGMVDGLRLGDNAKAALLTRGLKEMVRFGTALGGEEATFYGLAGLGDLLATAYSLHSRNRMAGESLVRGVDREALEARGVVEGLYAVKAMVAWGKEQGVELPVAEAVHRVAHEGLDPLAALKALMAREPKEE,soluble
